In the nanobody polyreactivity screen of Harvey et al. (2022):

Test: yeast display, Sf9 membrane polyspecificity reagent, FACS + sequencing; frameworks hold sequencing errors
Method in brief: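 Nanobodies came from a synthetic yeast display library in Saccharomyces cerevisiae BJ5465, induced with galactose for 36–48 hours and stained for 1 hour at 4 °C with 10% biotinylated, detergent-solubilized Sf9 membrane reagent. Cells were enriched on streptavidin microbeads and then FACS-sorted, with low and high (top ~1%) gates set on anti-HA fluorescence for expression and streptavidin fluorescence for reagent binding. Each polyreactivity label reflects the gate a clone came from. Genes were amplified by colony PCR, sequenced by MiSeq 2 × 250 and filtered by CDR length.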

Sequence | polyreactivity (PSR sort gate)
QVQLVESGGGIVQAGGSLRLSCAASGLTFPPNAMGWYRPAPGKEREFVAVISSGGGSTYYADSVKGRFTISRDNAKNTVYSQMNSLKPEDTAVYYCATEYQDGDTEYYYWGQGTQVTVSS | low polyreactivity
QVQLVESGGGIVQAGGSLRLSCAASGLTFRYYAMGWYRQAPGKERELVAAISGSGGSTYYADSVKGRFTISRDNAKNTVYLQLNRLKPEDTAVYYFASENESSSWGDYAMGYWGQGTQVTVST | high polyreactivity
QVQLVESGGGIVQAGGSLRLSCAASGNTFGYYAMGWYRPAPGKERELVASISYSGGSTYADSVKGRFTISRDNAKNTVYLQMNSLKPEDTAVYYCAADYWIYAADSWVLYDSWGQGTQVTVSS | low polyreactivity
QVQLVESGGGIVQAGGSLRLSCAASGNTFHTYAMGWNRQAPVKERELVAAISSRGVGTYYADSVKGRFTISRDNAKNTVYLQMNSLKPEDTAVYYCAARHHPEYYYWGQGTQVTVSS | high polyreactivity
QVQLVESGGGIVQAGGSLRLSCAASGRICIINAMGWYRQATGKERELVAAISTSGGRTYYADSVKGRFTISRDNAKNTVYLQKNSLKPVDTAVYYCNAGRGYRYYRSVGSSPYEYWGQGTQVTVSS | high polyreactivity
QVQLVESGGGIVQAGGSLRLSCAASGRIFAFNAMGWYRPAPGKERELVADITSSGVNTYYADSVKGRFTISRDNAINTVYLQMNSLKPEYTAVYYCAARSYLRWWVGMEYWGQGTQVTVSS | low polyreactivity
QVQLVESGGGIVQAGGSLRLSCAASGRIFAYYAMGWYRQAPGKERELVAAISSSGGGTYYAYSVKGRFTISRDNAKNTVYLQMTSLKPEDTSVYYCAKRVPRKSSVSHPYDYWGQGTQVTVSS | high polyreactivity
QVQLVESGGGIVQAGGSLRLSCAASGRIFFGYAMGWYRQAPGKERELVAAITSGGSTYYADSVKGRFTISRDNAKNTDYLQMYSLKTEDTAVYYCAAVRWYGSKRYGYWGQGTQVTVSS | high polyreactivity
QVQLVESGGGIVQAGGSLRLSCAASGRIFPYNAMGWYIQAPGKERELVAAIRWSGGNTYYADSVKGRFTISRDNAKNTVYLQMNSLKPEDNAVYYCAKYRRSFGFDYWGQGTQVTVSS | high polyreactivity
QVQLVESGGGIVQAGGSLRLSCAASGRIFRLNAMGWYRQAPGKERELVAAISSRAGSTYYADSVKGRFTISRDNAKNTVYLQMNSLKPEDTAVYYCAARTYSSRLGRDSDYWGQGTQVTVSS | high polyreactivity
QVQLVESGGGIVQAGGSLRLSCAASGRIFVPNAMGWYRQAPGKERELVAAITSDGRTNYADSVKGRFTISRDNAKHTVYLQMNSLKPEDTAVYYCNAPVVTFGGYQDDVEYGYWGQGTQVTVSS | low polyreactivity
QVQLVESGGGIVQAGGSLRLSCAASGRIFVRNAMGWYRQARGKERELVAAISWSGGTNYADSVKGSFTISRDNAKNTVYLQMNILKPEDTAVYYCAALSVWSYYTYYYWGQGTQVTVSS | high polyreactivity
QVQLVESGGGIVQAGGSLRLSCAASGRIFWDYAMGWYRQAPGKERELVDVITLSGDSTYYADSVKGRFTISRDNAKNTVYLQMNSLKPEDTAVYYCAAARAIRQFWYVATFEYWGQGTQVTVSS | low polyreactivity
QVQLVESGGGIVQAGGSLRLSCAASGRIFWYNAMGWYRQAPGKERELVAGITRSGGRTYYADCVKGRFTISRDNAKNTVYLQMNSLKPEYTAVYYCAAAPYARRDYEYWGQGTQVTVSS | high polyreactivity
QVQLVESGGGIVQAGGSLRLSCAASGRILGANDMGWYRQAPGTERELVAAITSGGRTYYADSVKGRFTISRDNAKNTVYLQMNCLKPEDTAVYYCAVGGWDESVGKGYDYWGQGTQVTVSS | low polyreactivity
QVQLVESGGGIVQAGGSLRLSCAASGRILSRYAMGWYRQAPGKESDLVADISSGGRTHYADSVKGRFTISRDNAKNTVYFQMNSLKPEDSAVYYCAKDYTPYSRRLNSGGYYYWGQGTQVTVSS | high polyreactivity
QVQLVESGGGIVQAGGSLRLSCAASGRTFKSNAMGWSIQAPGKERELVAAISRSGVRTDYADSVKGRFTISRDNANITVYLQMNSLKPEDTAVYYCADRTWNRRSPYDYWGQGTQVTVSS | high polyreactivity
QVQLVESGGGIVQAGGSLRLSCAASGRTFKVNAMGWYIQAPGKEREFVAAITWNSGSSTYYADSVKGRFTISRDNAKNTVYLQMNSLKPEDTAVYYCAARSAGRYWNYYWGQGTQVTVSS | high polyreactivity
QVQLVESGGGIVQAGGSLRLSCAASGRTFYGNAMGWYIQEPGKERELVAGISQNGGSTYYADSVKGRFTSSRDTAKNTVYLQMNRLKPEDSAVYYCAADSYYFTGYWAHPYDYWGEGTQVTVSS | high polyreactivity
QVQLVESGGGIVQAGGSLRLSCAASGRTFYRNAMGWYIHAPGKERELVAAITSGGSTYYADSVKGRFTISRDNAKNSGYLQMNCLKPEDTAVYYCAALRHALRYDYWGQGTQVTVSS | low polyreactivity
QVQLVESGGGIVQAGGSLRLSCAASGRTFYYNAMGWYRQAPGKERELVAAISSSGGSTYYADSVKGRFTISRDNAKNTVYLQMNSLKPEDTAGYYCAASSPGARGGGGYWGQGTQVTVSS | high polyreactivity
QVQLVESGGGIVQAGGSLRLSCAASGRTSVVNAMGWYRQAPGKERELVAAITSGGSTHYADSVKGRFTISRDNAKNTVYLQINSLKPEDTAVYYCNARDRRRTNLLDYWGQGSQVTVSS | low polyreactivity

Sequence | polyreactivity (PSR sort gate)
QVQLVESGGGIVQAGGSLRLSCAASGSIDWNAKGWYRQAPGKEREFVAAISSSGGRTSYADSVKGRFTISRDNAKNTVYLEMNSLKPEDTAVYYGAAAGSYDGDRYYYWGQGTQVTVSS | high polyreactivity
QVQLVESGGGIVQAGGSLRLSCAASGSIFARYAMGWSRPAPGKERELVAAISGRGGSTYYADSVKGRFTISRDHATNTDYLQMNSLKPEDTAVYYWNAVWDDYGFYSPYVVVEYDYWGQGTQVTVSS | high polyreactivity
QVQLVESGGGIVQAGGSLRLSCAASGSIFRRNALGWYRQAPGKERELVAAISSIGSSTYYADSVKGRFTISRENAKNTVYFQMNSLKPEDTAVYYCAAVFYYATYSKKFEYWGQGTQVTVSS | high polyreactivity
QVQLVESGGGIVQAGGSLRLSCAASGSIFVTNTMVWYRQAPGKERELVAAISYRGGSTYADSVKGRFTISRDNAKNTVYLQMNSLKPEDTAVYYCAADDLSFVGYYYGYVDDVYCGQGTQVTVSS | high polyreactivity
QVQLVESGGGIVQAGGSLRLSCAASGSIFYAYAMGWYRQAPGKERELVAAINRGDSTTYADSVKGRITISRDNAKNTVYLQMNSLKPEDTAVYYCAKSRPSRKYYAGVTGQGDYWGQGTQVTVSS | low polyreactivity
QVQLVESGGGIVQAGGSLRLSCAASGSILSYYAMGGYRQAPGNEREFVAAISWGTITNYADSVKGRFTISRDNAKKTVYLQMNSLKPEDTAVYYCNADPYGWYSSDYDYWGQGTQVTVSS | low polyreactivity
QVQLVESGGGIVQAGGSLRLSCAASGSILYPYAMGWYRQAPGKERELVAAISRGGSTNYADSVKGRFTISRDNAKNTVYLQMNSLKPEDTAVYYCATAYTRFSQRYEYYVIYWQNDYWGQGTQVTVSS | low polyreactivity
QVQLVESGGGIVQAGGSLRLSCAASGSNLQYKAMGWYRQAPGKERELVADITSSGGSTYYADSVKGRFTISRDNAKNTVYLQMNSLKPEDTAVYYFAKDTHWAYYWGQGTQVTVSS | low polyreactivity
QVQLVESGGGIVQAGGSLRLSCAASGSSHGYAMGWYRQAPGKERELVAAISLNTGSTYYADSVNGRFTISRDNAKNTVYLQMNSLKPEDTAVYFCNADDYTYATYEYDYWGQGTQVTVSS | low polyreactivity
QVQLVESGGGIVQAGGSLRLSCAASGSTFETNAMGRDRQAPGKERELVAAIRWSTGNTYYADSVNGRFTISRDNAKNTVYLQMNSLITEDTAVYYCAAYKAKHYKDGYWGQGTQVSVSS | low polyreactivity
QVQLVESGGGIVQAGGSLRLSCAASGSTFRYYARGWSRQAPGKERELVATITCNAAGTYYADSVKGRFTISRDNAKNTVYLQMNSLKPEDTAVYYCAAAPWEWYHYGYYYWGQGTQVTVSS | low polyreactivity
QVQLVESGGGIVQAGGSLRLSCAASGSTFSYYDMGWYRQAPGKERELVAAISWNGGTTYYADSVKGRFTISRDNAKNTVYLQMNSLKPEDTAVYYCAATWDFYWAPYDSWGQGTQVTVSS | low polyreactivity
QVQLVESGGGIVQAGGSLRLSCAASGSTFVTHAMGCYRQAPGKEREFVAAISWNSTSTYFADSVKGRFTISRDHAKNTVYLQMNSLKPEDTAVYYCNATTFAFSPSLKGAYGYWGQGTQVTVSS | low polyreactivity
QVQLVESGGGIVQAGGSLRLSCAASGSTFYVYAMGWYRQAPGKERELVAAITVRGGSTYYADSVKGRFTISRDNAKNTVYLQMNSLKPEDTSVDYCNAEGTYGYWRSYNYWGQGTQVTVSS | high polyreactivity
QVQLVESGGGIVQAGGSLRLSCAASGSTIGYYAMGWSRQAPGKERELVAAISRRGGSTYYADSVKGRFTISRDNAKNTVYLQMTSLKPEDTAVYYCAADRRIGDGENYYWGQGTQVTVSS | high polyreactivity
QVQLVESGGGIVQAGGSLRLSCAASGYTFGTYAMGWYRQAPGKERELVAAITSTGGRTYYADSVKGRFTISRDNAKNTVYLQMNSLKPEDTAVYYCAAERVYRTIWHYPYYYWGQGTQVTVSS | high polyreactivity
QVQLVESGGGIVQAGGSLRLSCAASYYDMGWYRQAPGKERELVASISSGGSTNYADSVKGRFTISRDNAKNTVYLQMNSLKPEDTAVYYCAADVADGVWVKIADEYWGQGTQVTVSS | low polyreactivity
QVQLVESGGGIVQAGGSLRLSCASSGRTFFWYAMVWYRQAPGKERELVAAITYRGGGTYYADSVKGRFTISRDNAKNTVYLQMNSLKPEDTAVYYCAAEYWVGVYLYDYWGQGTQVTVSS | high polyreactivity
QVQLVESGGGIVQAGGSLRLSCDASGNTFKGYAMGWYRQAPGTESELVAAISWSGSSTYYADSLKGRFTISRDNAKNTVYFQLNSLKQEDPAVFSCNRKYLGRYASVYGYGYWGQGTQVTVSS | high polyreactivity
QVQLVESGGGIVQAGGSLRLSCSASGSIFPLDGMGSYRQAPGKERELVAAISIGGRTNYADSVKGRFTISRDNAKNTVYLQMTSLKPEDTAVYYCNAVSKFVYRNRILWYDYWGQGTQVTVSS | high polyreactivity
QVQLVESGGGIVQAGGSLRLSGAASGFTLTSYAMGWYRQPHGNERELVAGISRGGITYYADSVKGRFTISSDNAKNTVYLQMNSLKPEDTAVYYCATEASFYDPDMYPYGYDYWGQGTQVTVSS | high polyreactivity
